Assay results: the Immune Epitope Database (IEDB)

Columns and labels:
HLA-A*02:19 = assay: IEDB peptide-MHC binding, purified MHC/competitive/fluorescence; filed as Kd, often an IC50 or EC50 that approximates it; ≥ and ≤ were set here for values at or beyond the usual limits of such assays
HLA-A*24:03 = assay: as above
HLA-A*26:01 = assay: as above
HLA-A*03:01 [1] = assay: as above
HLA-B*39:01 = assay: as above
HLA-B*18:01 = assay: as above
HLA-B*83:01 = assay: as above; settings: source organism: Vibrio vulnificus CMCP6
HLA-A*02:11 = assay: as above
HLA-A*68:02 = assay: as above; settings: source organism: Vibrio vulnificus CMCP6
HLA-B*27:03 = assay: as above
HLA-A*29:02 = assay: as above
HLA-A*02:03 = assay: as above
HLA-B*46:01 = assay: as above
HLA-B*57:01 = assay: as above
HLA-A*02:12 = assay: as above
HLA-A*23:01 = assay: as above
HLA-B*51:01 = assay: as above
HLA-B*15:42 = assay: as above; settings: source organism: Vibrio vulnificus CMCP6
HLA-B*15:17 = assay: as above
HLA-A*69:01 = assay: as above
HLA-B*45:06 = assay: as above; settings: source organism: Vibrio vulnificus CMCP6
HLA-B*15:01 = assay: as above
HLA-A*02:01 = assay: as above
HLA-A*02:16 = assay: as above
HLA-C*05:01 = assay: IEDB peptide-MHC binding, purified MHC/direct/fluorescence; filed as Kd, often an IC50 or EC50 that approximates it; ≥ and ≤ were set here for values at or beyond the usual limits of such assays; settings: source organism: Salmonella enterica subsp. enterica serovar Typhi str. CT18
HLA-A*03:01 [2] = assay: IEDB peptide-MHC binding, purified MHC/competitive/fluorescence; ≥ and ≤ were set here for values at or beyond the usual limits of such assays; settings: source organism: Zaire ebolavirus
HLA-A*01:01 = assay: as above; settings: source organism: Zaire ebolavirus
HLA-A*24:02 = assay: as above; settings: source organism: Zaire ebolavirus
HLA-A*11:01 = assay: as above; settings: source organism: Zaire ebolavirus
HLA-A*02:06 = assay: IEDB peptide-MHC binding, purified MHC/competitive/fluorescence; filed as Kd, often an IC50 or EC50 that approximates it; ≥ and ≤ were set here for values at or beyond the usual limits of such assays; settings: source organism: Human immunodeficiency virus 1
HLA-A*26:02 = assay: as above; settings: source organism: Human immunodeficiency virus 1
[3] = source organism: Vibrio vulnificus CMCP6
[4] = source organism: Salmonella enterica subsp. enterica serovar Typhi
[5] = source organism: Human immunodeficiency virus 1

With LEMNDAPTA the Kd (HLA-A*02:19; [3]) was ≥ 20 µM, the Kd (HLA-A*24:03; [3]) was ≥ 20 µM and the Kd (HLA-A*26:01; [3]) was ≥ 20 µM. The Kd (HLA-A*03:01 [1]; [3]) was ≥ 20 µM, the Kd (HLA-B*39:01; [3]) was ≥ 20 µM and the Kd (HLA-B*18:01; [3]) was 0.24 µM. For the same sequence, the Kd (HLA-B*83:01) was ≥ 5 µM, the Kd (HLA-A*02:11; [3]) was ≥ 20 µM and the Kd (HLA-A*68:02) was ≥ 20 µM. For the same sequence, the Kd (HLA-B*27:03; [3]) was ≥ 20 µM, the Kd (HLA-A*29:02; [3]) was ≥ 20 µM and the Kd (HLA-A*02:03; [3]) was ≥ 20 µM. The Kd (HLA-B*46:01; [3]) was ≥ 20 µM, the Kd (HLA-B*57:01; [3]) was ≥ 20 µM and the Kd (HLA-A*02:12; [3]) was ≥ 20 µM. The Kd (HLA-A*23:01; [3]) was ≥ 20 µM, the Kd (HLA-B*51:01; [3]) was ≥ 20 µM and the Kd (HLA-B*15:42) was ≥ 5 µM. For the same sequence, the Kd (HLA-B*15:17; [3]) was ≥ 20 µM, the Kd (HLA-A*69:01; [3]) was ≥ 20 µM and the Kd (HLA-B*45:06) was ≥ 5 µM. For the same sequence, the Kd (HLA-B*15:01; [3]) was ≥ 20 µM, the Kd (HLA-A*02:01; [3]) was ≥ 20 µM and the Kd (HLA-A*02:16; [3]) was ≥ 20 µM.
In the case of NTDEIPELI, the Kd (HLA-C*05:01) is reported as 0.114 µM, the Kd (HLA-A*02:19; [4]) is reported as ≥ 20 µM and the Kd (HLA-A*24:03; [4]) is reported as ≥ 20 µM. For the same sequence, the Kd (HLA-A*26:01; [4]) was ≥ 20 µM, the Kd (HLA-A*03:01 [1]; [4]) was ≥ 20 µM and the Kd (HLA-B*39:01; [4]) was ≥ 20 µM. For the same sequence, the Kd (HLA-B*18:01; [4]) was ≥ 20 µM, the Kd (HLA-A*02:11; [4]) was 0.0031 µM and the Kd (HLA-B*27:03; [4]) was ≥ 20 µM. For the same sequence, the Kd (HLA-A*29:02; [4]) was ≥ 20 µM, the Kd (HLA-A*02:03; [4]) was ≥ 20 µM and the Kd (HLA-B*46:01; [4]) was ≥ 20 µM. The Kd (HLA-B*57:01; [4]) was ≥ 20 µM, the Kd (HLA-A*02:12; [4]) was ≥ 20 µM and the Kd (HLA-A*23:01; [4]) was ≥ 20 µM. The Kd (HLA-B*51:01; [4]) was ≥ 20 µM, the Kd (HLA-B*15:17; [4]) was ≥ 20 µM and the Kd (HLA-B*15:01; [4]) was ≥ 20 µM. For the same sequence, the Kd (HLA-A*02:01; [4]) was ≥ 20 µM and the Kd (HLA-A*02:16; [4]) was ≥ 20 µM.
With ATDVPSATK the IC50 (HLA-A*03:01 [2]) was 28.7 µM, the IC50 (HLA-A*01:01) was 12 µM and the IC50 (HLA-A*24:02) was 64.6 µM. The IC50 (HLA-A*11:01) was 2.14 µM.
With LFNTIATLY the Kd (HLA-A*02:06) was 1.29 µM, the Kd (HLA-A*26:02) was ≥ 20 µM and the Kd (HLA-A*02:03; [5]) was ≥ 20 µM. It also gave a Kd (HLA-B*15:17; [5]) of 2.51 µM and a Kd (HLA-A*02:01; [5]) of 1.07 µM.
VVPYEPPEV was tested, and the Kd (HLA-A*02:11; source organism: Homo sapiens) was 0.0093 µM, the Kd (HLA-A*02:03; source organism: Homo sapiens) was 1.12 µM and the Kd (HLA-A*02:12; source organism: Homo sapiens) was 0.161 µM. The Kd (HLA-A*69:01; source organism: Homo sapiens) was ≥ 20 µM and the Kd (HLA-A*02:01; source organism: Homo sapiens) was 0.0265 µM.
